Measurements: the supplement of paper PMC12764529
± gives the half width of the 95% confidence interval.

What was measured:
[1] = folding stability dG unfold from trypsin proteolysis; higher = more stable
Outline: (§1)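 Unfolding free energy was derived, per protease or combined, by relating Bayesian-fitted K50 values from sequencing counts to a sequence-predicted unfolded-state K50 and a shared folded-state K50. The underlying digests exposed cysteine-free mini-proteins under 80 residues, in a PA-tagged cDNA display construct, to trypsin and chymotrypsin at 11 threefold-diluted concentrations and to a no-protease condition. A filter kept only designs with AlphaFold2 dimer inter-PAE above 15.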

[2] = folding stability dG unfold from chymotrypsin proteolysis; higher = more stable
Outline: as §1

[3] = folding stability dG unfold (combined trypsin and chymotrypsin); higher = more stable
Outline: as §1

Sequence	folding stability dG unfold [1] [kcal/mol]	folding stability dG unfold [2] [kcal/mol]	folding stability dG unfold [3] [kcal/mol]
SAGGSAGGSAGGSKEIKVEVEEKDGKLTVTVTFPDGSKVEIEGMSAEEVEKLVKELAKKSAGGSAGGSAGGS [r4_383_TrROS_Hall]	1.4 ± 0.061	2.36 ± 0.1	2.06 ± 0.061
SAGGSAGGSAGGSVSVNIPLEELKERVPPSLSVSVSPTPVPEGGGVRVPVTLTSPAELGSAGGSAGGSAGGS [r4_119_JUSTAS]	1 ± 0.031	0.471 ± 0.025	0.763 ± 0.041
SAGGGSISPAIVAALRAAGASLEEIVAYLNEQGYPIASVLGEEEHHHHHHITLLLPETGETVTVELHSAGGS [r8_179_JUSTAS]	2.43 ± 0.068	3.029 ± 0.028	2.79 ± 0.096
MDDVVRVVLPVRVRIRDPVAPDRPEREVEILLERDVPLDEESLEELLEEAERAAEELARALGGEEAEVEPVS [r1_300_TrMRF]	0.135 ± 0.09	1.54 ± 0.024	1.15 ± 0.089
SAGGPLTLTIPLPDGTTITVTLTRNPDTPSYTATADITFPDGSVVRIHATINSDGSITIHSVEVFPASAGGS [r16_213_TrMRF]	4.51 ± 0.57	5.06 ± 0.24	5.19 ± 0.18
SAGQWVKFTLPIYKMKYEKDKDGKPEIKEMKPIPKFDIEARVDEDGNVRIRFGGNEREFPPGESLEDLISAG [r14_909_TrROS]	0.0407 ± 0.21	0.482 ± 0.28	0.478 ± 0.24
GMTIVPPSSPVTDSSGNYEEYPDSQLYKDSSTGKPIIAFPMSPEELAAGDPAALARREALAKEYGLPEIEPS [r1_438_JUSTAS]	-0.579 ± 0.35	0.0509 ± 0.37	0.0139 ± 0.25
SAGGSAGGSAGGKLKPGQKVLVIELKVTKVKTKKDGKKEFEFEITRIEIVEVPEGAKILSAGGSAGGSAGGS [r10_826_TrROS_Hall]	1.78 ± 0.051	1.01 ± 0.051	1.46 ± 0.14
SAGGSAGGSAGKKELTFKDKNGKTITVTLEDGEIKEIKIEKPPKPKVVKTEKKYVPKEELSAGGSAGGSAGG [r17_287_TrROS_Hall]	0.0355 ± 0.16	0.0761 ± 0.069	0.135 ± 0.4
SAGGSAGGSMIDDIVEKLKIPPGTRIVFNDGEVKYFDNREDIKEWAKNGYPAEKLKNIVAFPESAGGSAGGS [r12_430_TrMRF]	-0.276 ± 0.15	0.491 ± 0.1	0.251 ± 0.12
SAGGSIPLSDIKDIEIHPWRHPNNNYPMYRIRIDNGRDMVIFPGAIFEFDPDDGKIEEVKPMPFGDSAGGSA [r2_374_TrROS]	0.165 ± 0.22	0.222 ± 0.22	0.238 ± 0.14
SAGDNYREVEYTLKLKNPKGERKLKVKVYYPKGGMFIKIEWPDNGRKIDIPFKSPEDAEETIKDLLDKLSAG [r5_480_TrROS]	1.71 ± 0.059	2.25 ± 0.13	2.13 ± 0.22
SAGGSSFTGTVTPVKVDPVNPDLVTVATTLTWPDGTTVPLTRTIPRSVYDSLPENISISVTLSPPSSAGGSA [r2_128_JUSTAS]	-0.0475 ± 0.15	1.33 ± 0.1	0.942 ± 0.1
SAGGSAGGSKPRPIDIMFPNPENGRPVMIRIEYTKDKIKAEWYFGNKPQEKKIDDPEDLLEFISAGGSAGGS [r12_299_TrROS]	0.0886 ± 0.055	1.08 ± 0.1	0.754 ± 0.096
SAGGPVETPGPHPLRPVPVVEPKKVVVTYPDLSPEEAAALAAELEAQGATTSFDPATGTLTVTLTGLSAGGS [r16_765_JUSTAS]	1.12 ± 0.043	3 ± 0.038	2.58 ± 0.072
SAGGLAPVYKTEDGVYLITPYNPETGELLETIPISEEDIEELSKEYGRDLTIEEIVKKLGYETEITVASAGG [r13_836_TrMRF]	0.786 ± 0.057	0.99 ± 0.03	0.969 ± 0.06
SAMRAAVLAAAEEITAHPEFEAVGISPDGTFLFRNPATGKVYRIRLEAEDDGEGVIVRVPSIEPLDAPDSAG [r14_20_TrMRF]	1.43 ± 0.028	1.92 ± 0.051	1.75 ± 0.087
SAGGSAGGNMIPVKARMKWPDGKEFPFEIMVQYQPDGQMQIEIQNPGDGETVTFPNMKLIDVEISAGGSAGG [r6_255_TrROS]	-0.656 ± 0.26	0.828 ± 0.021	0.469 ± 0.06
SAGKEKEIAEAIEEFLKEKGYDVKVKLIKVNPNNPNLSKVVLEVEVLGYLPDKKPLGKKRFKLVILGGSAGG [r19_418_TrMRF]	2.64 ± 0.066	2.72 ± 0.046	2.52 ± 0.17
SAGWYIKVEVYYGGKKHTFMIPRKQAKELRKKYPPGDEIPIPFNGRDVEIRVQVIPPPPPSPEDAADNKSAG [r5_669_TrROS]	1.83 ± 0.047	2.75 ± 0.12	2.44 ± 0.17
SAGGSAGGSAGGMPADEKVTTSPEIVTLPNGTRVVVTKSTSPDPSVSSTSVTVLPPNVPPSAGGSAGGSAGG [r11_338_JUSTAS]	0.393 ± 0.029	1.38 ± 0.027	1.05 ± 0.066

Sequence	folding stability dG unfold [1] [kcal/mol]	folding stability dG unfold [2] [kcal/mol]	folding stability dG unfold [3] [kcal/mol]
SAKKTITITKITLTLFNKDGKPVATAEITSIEITYDPKTNTFTITATVKVTLPNGKTFTFKLTITLPVKSAG [r14_609_TrROS_Hall]	3.91 ± 0.18	4.87 ± 0.21	4.55 ± 0.41
SAGGSAGGSAGKPLKVKKFEVELLVRDPETNRWYRIRAEVYRVEGLPDLFIIKLEIEELPSAGGSAGGSAGG [r11_1029_TrROS_Hall]	3.96 ± 0.12	4.82 ± 0.099	4.6 ± 0.11
SAGGDPDEIKKVIITARIYRPDPDGNIHTATIPIIIEGPLDEVIEKVAKEIEEAFGTKIVEITVEKGSAGGS [r16_511_TrMRF]	1.54 ± 0.047	1.2 ± 0.07	1.36 ± 0.14
SAGGSAGGSAGFKLPPGQEVVFQVSIKLPDGPTQTLEDLENMPPENIDFLEIEISWVPVDSAGGSAGGSAGG [r11_899_TrROS]	1.09 ± 0.14	1.81 ± 0.12	1.57 ± 0.2
SAGGGSMTPTTTTKTYNVPPELAQKILDGYPLGDKELAAALGLPPDVEVTLVSSDEDTLTVEITIPASAGGS [r16_679_JUSTAS]	3.48 ± 0.14	4.05 ± 0.068	3.81 ± 0.075
SAGGSAGGNTITVFMPYSQARELAEELRDEGITVDIQPYPDWMFITVEIKVPKIDPEDNPDNKDSAGGSAGG [r6_392_TrROS]	1.43 ± 0.047	1.3 ± 0.074	1.35 ± 0.089
SAGGMKTFTLENPPLAPPDRPLGGSTLKLPDGTVLVRINLPSGETILLPSYEELEKLKASGEPVSVTASSAG [r5_42_JUSTAS]	0.285 ± 0.055	0.254 ± 0.15	0.348 ± 0.12
SEALEKAAEAGVKTIYVYVKPGDLEEIKRLKALDVKIVLYATEEIPPEAFEALPGVKVEKVEWISPEELPSA [r9_671_TrMRF]	0.759 ± 0.023	2.08 ± 0.052	1.65 ± 0.1
SAGGSAGGKEFEIEKVEITVENGTITIRMIVRDKETNEYYEVEKTITFDPETKELHVEIKVKKVSAGGSAGG [r6_604_TrROS_Hall]	4.19 ± 0.13	3.23 ± 0.1	3.91 ± 0.16
GPEVLVETFVDPETGRVVVRVYFPEPDRLVLAVGERGGDGVRVLVVEYEADPLEPRFAEFEFPALPEGFDES [r1_404_TrMRF]	2.52 ± 0.14	2.59 ± 0.054	2.44 ± 0.092
SAGGSAGGSAGGKAKIVDVKIEKEGNTVTIEVKIEVDGKLIATAKVRFTGPDGKLEIEIESAGGSAGGSAGG [r7_133_TrROS_Hall]	3.25 ± 0.16	2.9 ± 0.27	3.15 ± 0.15
SFTPEQVKDIAKTIANRMYDNGYEVEVDVEVEPVNNMPYVEIEFEWRDPDGQPWKFEIIIHPDGDIEIYPSA [r9_1027_TrROS]	1.28 ± 0.16	2.7 ± 0.065	2.43 ± 0.21
SAGGSAGGSAGGTAEAVRKLAEEFSQQHGMPIKDVEVQRPPNKWKPVIRYPDNGKWIEISAGGSAGGSAGGS [r10_161_TrROS]	0.298 ± 0.086	0.465 ± 0.13	0.388 ± 0.2
SASPRTITVPVTRFPDGTVRFTIETPDKTITLTFPPSATFEEALEKLSPDPDKKITLVEKDPTTVTVAESAG [r14_404_JUSTAS]	0.781 ± 0.051	0.852 ± 0.16	0.873 ± 0.13
SAGSKTITLEFNFEELKVKVTVTYDPEGEPTVTVTTTIYAKGGEKLETKTTTVTASPDDPVVKAFLESSSAG [r5_964_JUSTAS]	2.19 ± 0.041	3.16 ± 0.084	2.77 ± 0.074
SAGGSAGGSDPEFELVRVEVFPFPTATLVRAVARFPPTDEYVEVELVHFPVPDRVLLRVRLLPSAGGSAGGS [r12_14_TrMRF]	3.07 ± 0.064	3.93 ± 0.071	3.58 ± 0.097
SAGGMNVSYLFSKSVPKEEIEAYLKKLDPNKKYKFEELEPEEIEKLPESIEVIEKPVDETLRLVLVEESAGG [r13_649_JUSTAS]	-0.323 ± 0.092	0.765 ± 0.11	0.473 ± 0.12
SMVTVDEKEDPNSDNKIYTVSLPENGEDVITITKAPDGTTTVTLHYPDGSTTTKTFPGNTPVTEAIKLLLSA [r9_346_JUSTAS]	2.23 ± 0.12	1.39 ± 0.083	1.74 ± 0.15
SAGGEKATVTVVYDPEKGYVVVPVDIPFLDENGKPKKLKLVFVLPASPEAEEAVKELAKELGLESVESAGGS [r8_381_TrMRF]	1.37 ± 0.1	2.38 ± 0.059	2.11 ± 0.2
SAGGSAMGMRPVRREFTGSGMRITVEVVESTSIPTAEIRVLDPEGRLLRERRLPAEEVEREIARLLSAGGSA [r15_940_JUSTAS]	1.34 ± 0.069	1.58 ± 0.092	1.55 ± 0.096
SAGGSAGGSAKIRLIFKTEEEARKAIEALLPEGAKAKIKVEKRKDGKKYVVVEIEFKEEEESAGGSAGGSAG [r3_87_TrROS_Hall]	3.58 ± 0.24	3.79 ± 0.23	3.57 ± 0.21
